Measurements reported in patent publication US8840891 (RSR, dated 2014).
Where two headings read alike, the source gives them in different places.

Columns and labels:
[1] = target: wild type human TSHR (thyrotropin receptor) expressed on CHO cells (human) (UniProt P16473); test: cell-based or functional assay
[2] = target: TSHR with Tyr206 mutated to Alanine expressed on CHO cells (human) (UniProt P16473); test: cell-based or functional assay
[3] = target: wild type human TSHR (thyrotropin receptor) expressed on CHO cells (human) (UniProt P16473); test: cell-based or functional assay; remark: listed apart in the source
[4] = target: TSHR with Thr257 mutated to Alanine expressed on CHO cells (human) (UniProt P16473); test: cell-based or functional assay
[5] = target: TSHR coated onto tubes (TSHR coated tubes) (human) (UniProt P16473); test: TSHR coated tubes, in presence of HBD pool
[6] = target: TSHR with Glu107 mutated to Alanine expressed on CHO cells (human) (UniProt P16473); test: cell-based or functional assay
[7] = target: TSHR with Phe130 mutated to Alanine expressed on CHO cells (human) (UniProt P16473); test: cell-based or functional assay
[8] = target: wild type human TSHR (thyrotropin receptor) expressed on CHO cells (human) (UniProt P16473); test: cell-based or functional assay; remark: listed apart in the source
[9] = target: wild type human TSHR (thyrotropin receptor) expressed on CHO cells (human) (UniProt P16473); test: cell-based or functional assay; remark: listed apart in the source
[10] = target: TSHR with Glu61 mutated to Alanine expressed on CHO cells (human) (UniProt P16473); test: cell-based or functional assay
[11] = target: wild type human TSHR (thyrotropin receptor) expressed on CHO cells (human) (UniProt P16473); test: cell-based or functional assay; remark: listed apart in the source
[12] = target: TSHR with Arg274 mutated to Alanine expressed on CHO cells (human) (UniProt P16473); test: cell-based or functional assay

B1: 5C9 IgG (human monoclonal autoantibody to the TSHR) (antibody, from another filing, V domains shown)
VH: EVQLVESGGGLIQPGGSLRLSCAASGFTVSSNYMSWVRQAPGKGLEWVSVTYSGGSTSYADSVKGRFTISRDNSKNTLYLQMNSLRAEDTAVYYCARGGRYCSSISCYARSGCDYWGQGTLVTVSS
VL: AIQMTQSPSSLSASVGDRVTITCRASQSISNYLNWYQQKPGKAPKLLIYAASSLQSGVPSRFSGSGSGTDFTLTISSLQPEDFATYYCQQSYSSPSTTFGQGTKLEIK
- Cyclic AMP produced; 5C9 0.01 µg/mL + TSH (fmol/cell well) [1]: 16100
- Cyclic AMP produced; 5C9 0.1 µg/mL + TSH (fmol/cell well) [1]: 6220
- Cyclic AMP produced; 5C9 1.0 µg/mL + TSH (fmol/cell well) [1]: 1310
- Cyclic AMP produced; 5C9 10 µg/mL + TSH (fmol/cell well) [1]: 396
- Cyclic AMP produced; 5C9 100 µg/mL + TSH (fmol/cell well) [1]: 292
- Cyclic AMP produced; 5C9 100 µg/mL only (fmol/cell well) [1]: 444
- Cyclic AMP produced; 5C9 0.01 µg/mL + TSH (fmol/cell well) [2]: 18400
- Cyclic AMP produced; 5C9 0.1 µg/mL + TSH (fmol/cell well) [2]: 10800
- Cyclic AMP produced; 5C9 1.0 µg/mL + TSH (fmol/cell well) [2]: 3460
- Cyclic AMP produced; 5C9 10 µg/mL + TSH (fmol/cell well) [2]: 1560
- Cyclic AMP produced; 5C9 100 µg/mL + TSH (fmol/cell well) [2]: 506
- Cyclic AMP produced; 5C9 100 µg/mL only (fmol/cell well) [2]: 482
- Mutated/wild type (%); 5C9 0.01 µg/mL + TSH [2]: 114%
- Mutated/wild type (%); 5C9 0.1 µg/mL + TSH [2]: 174%
- Mutated/wild type (%); 5C9 1.0 µg/mL + TSH [2]: 265%
- Mutated/wild type (%); 5C9 10 µg/mL + TSH [2]: 395%
- Mutated/wild type (%); 5C9 100 µg/mL + TSH [2]: 173%
- Mutated/wild type (%); 5C9 100 µg/mL only [2]: 109%
- Cyclic AMP produced; 5C9 0.01 µg/mL + TSH (fmol/cell well) [3]: 18700
- Cyclic AMP produced; 5C9 0.1 µg/mL + TSH (fmol/cell well) [3]: 6140
- Cyclic AMP produced; 5C9 1.0 µg/mL + TSH (fmol/cell well) [3]: 1400
- Cyclic AMP produced; 5C9 10 µg/mL + TSH (fmol/cell well) [3]: 638
- Cyclic AMP produced; 5C9 100 µg/mL + TSH (fmol/cell well) [3]: 591
- Cyclic AMP produced; 5C9 100 µg/mL only (fmol/cell well) [3]: 566
- Cyclic AMP produced; 5C9 0.01 µg/mL + TSH (fmol/cell well) [4]: 21100
- Cyclic AMP produced; 5C9 0.1 µg/mL + TSH (fmol/cell well) [4]: 7940
- Cyclic AMP produced; 5C9 1.0 µg/mL + TSH (fmol/cell well) [4]: 1590
- Cyclic AMP produced; 5C9 10 µg/mL + TSH (fmol/cell well) [4]: 972
- Cyclic AMP produced; 5C9 100 µg/mL + TSH (fmol/cell well) [4]: 611
- Cyclic AMP produced; 5C9 100 µg/mL only (fmol/cell well) [4]: 637
- Mutated/wild type (%); 5C9 0.01 µg/mL + TSH [4]: 113%
- Mutated/wild type (%); 5C9 0.1 µg/mL + TSH [4]: 129%
- Mutated/wild type (%); 5C9 1.0 µg/mL + TSH [4]: 114%
- Mutated/wild type (%); 5C9 10 µg/mL + TSH [4]: 152%
- Mutated/wild type (%); 5C9 100 µg/mL + TSH [4]: 103%
- Mutated/wild type (%); 5C9 100 µg/mL only [4]: 111%
- % binding of labelled tracer [5]: 20%
- Cyclic AMP produced; Experiment 1; 5C9 0.01 µg/mL + TSH (fmol/cell well) [6]: 15000
- Cyclic AMP produced; Experiment 1; 5C9 0.1 µg/mL + TSH (fmol/cell well) [6]: 5780
- Cyclic AMP produced; Experiment 1; 5C9 1.0 µg/mL + TSH (fmol/cell well) [6]: 394
- Cyclic AMP produced; Experiment 1; 5C9 10 µg/mL + TSH (fmol/cell well) [6]: 449
- Cyclic AMP produced; Experiment 1; 5C9 100 µg/mL + TSH (fmol/cell well) [6]: 203
- Cyclic AMP produced; Experiment 1; 5C9 100 µg/mL only (fmol/cell well) [6]: 462
- Cyclic AMP produced; Experiment 2; 5C9 0.01 µg/mL + TSH (fmol/cell well) [6]: 21000
- Cyclic AMP produced; Experiment 2; 5C9 0.1 µg/mL + TSH (fmol/cell well) [6]: 1540
- Cyclic AMP produced; Experiment 2; 5C9 1.0 µg/mL + TSH (fmol/cell well) [6]: 28
- Cyclic AMP produced; Experiment 2; 5C9 10 µg/mL + TSH (fmol/cell well) [6]: 321
- Cyclic AMP produced; Experiment 2; 5C9 100 µg/mL + TSH (fmol/cell well) [6]: 64
- Cyclic AMP produced; Experiment 2; 5C9 100 µg/mL only (fmol/cell well) [6]: 408
- Mutated/wild type (%); Experiment 1; 5C9 0.01 µg/mL + TSH [6]: 88%
- Mutated/wild type (%); Experiment 1; 5C9 0.1 µg/mL + TSH [6]: 97%
- Mutated/wild type (%); Experiment 1; 5C9 1.0 µg/mL + TSH [6]: 37%
- Mutated/wild type (%); Experiment 1; 5C9 10 µg/mL + TSH [6]: 91%
- Mutated/wild type (%); Experiment 1; 5C9 100 µg/mL + TSH [6]: 105%
- Mutated/wild type (%); Experiment 1; 5C9 100 µg/mL only [6]: 36%
- Mutated/wild type (%); Experiment 2; 5C9 0.01 µg/mL + TSH [6]: 113%
- Mutated/wild type (%); Experiment 2; 5C9 0.1 µg/mL + TSH [6]: 37%
- Mutated/wild type (%); Experiment 2; 5C9 1.0 µg/mL + TSH [6]: 4%
- Mutated/wild type (%); Experiment 2; 5C9 10 µg/mL + TSH [6]: 150%
- Mutated/wild type (%); Experiment 2; 5C9 100 µg/mL + TSH [6]: 27%
- Mutated/wild type (%); Experiment 2; 5C9 100 µg/mL only [6]: 193%
- Cyclic AMP produced; 5C9 0.01 µg/mL + TSH (fmol/cell well) [7]: 17400
- Cyclic AMP produced; 5C9 0.1 µg/mL + TSH (fmol/cell well) [7]: 9020
- Cyclic AMP produced; 5C9 1.0 µg/mL + TSH (fmol/cell well) [7]: 2240
- Cyclic AMP produced; 5C9 10 µg/mL + TSH (fmol/cell well) [7]: 1140
- Cyclic AMP produced; 5C9 100 µg/mL + TSH (fmol/cell well) [7]: 603
- Cyclic AMP produced; 5C9 100 µg/mL only (fmol/cell well) [7]: 446
- Mutated/wild type (%); 5C9 0.01 µg/mL + TSH [7]: 114%
- Mutated/wild type (%); 5C9 0.1 µg/mL + TSH [7]: 332%
- Mutated/wild type (%); 5C9 1.0 µg/mL + TSH [7]: 562%
- Mutated/wild type (%); 5C9 10 µg/mL + TSH [7]: 754%
- Mutated/wild type (%); 5C9 100 µg/mL + TSH [7]: 251%
- Mutated/wild type (%); 5C9 100 µg/mL only [7]: 134%
- Cyclic AMP produced; 5C9 0.01 µg/mL + TSH (fmol/cell well) [8]: 15300
- Cyclic AMP produced; 5C9 0.1 µg/mL + TSH (fmol/cell well) [8]: 2710
- Cyclic AMP produced; 5C9 1.0 µg/mL + TSH (fmol/cell well) [8]: 398
- Cyclic AMP produced; 5C9 10 µg/mL + TSH (fmol/cell well) [8]: 151
- Cyclic AMP produced; 5C9 100 µg/mL + TSH (fmol/cell well) [8]: 240
- Cyclic AMP produced; 5C9 100 µg/mL only (fmol/cell well) [8]: 334
- Cyclic AMP produced; 5C9 0.01 µg/mL + TSH (fmol/cell well) [9]: 13800
- Cyclic AMP produced; 5C9 0.1 µg/mL + TSH (fmol/cell well) [9]: 2890
- Cyclic AMP produced; 5C9 1.0 µg/mL + TSH (fmol/cell well) [9]: 536
- Cyclic AMP produced; 5C9 10 µg/mL + TSH (fmol/cell well) [9]: 254
- Cyclic AMP produced; 5C9 100 µg/mL + TSH (fmol/cell well) [9]: 202
- Cyclic AMP produced; 5C9 100 µg/mL only (fmol/cell well) [9]: 218
- Cyclic AMP produced; 5C9 0.01 µg/mL + TSH (fmol/cell well) [10]: 18000
- Cyclic AMP produced; 5C9 0.1 µg/mL + TSH (fmol/cell well) [10]: 2110
- Cyclic AMP produced; 5C9 1.0 µg/mL + TSH (fmol/cell well) [10]: 766
- Cyclic AMP produced; 5C9 10 µg/mL + TSH (fmol/cell well) [10]: 346
- Cyclic AMP produced; 5C9 100 µg/mL + TSH (fmol/cell well) [10]: 328
- Cyclic AMP produced; 5C9 100 µg/mL only (fmol/cell well) [10]: 254
- Mutated/wild type (%); 5C9 0.01 µg/mL + TSH [10]: 131%
- Mutated/wild type (%); 5C9 0.1 µg/mL + TSH [10]: 73%
- Mutated/wild type (%); 5C9 1.0 µg/mL + TSH [10]: 143%
- Mutated/wild type (%); 5C9 10 µg/mL + TSH [10]: 136%
- Mutated/wild type (%); 5C9 100 µg/mL + TSH [10]: 162%
- Mutated/wild type (%); 5C9 100 µg/mL only [10]: 117%
- Cyclic AMP produced; 5C9 0.01 µg/mL + TSH (fmol/cell well) [11]: 16300
- Cyclic AMP produced; 5C9 0.1 µg/mL + TSH (fmol/cell well) [11]: 5000
- Cyclic AMP produced; 5C9 1.0 µg/mL + TSH (fmol/cell well) [11]: 808
- Cyclic AMP produced; 5C9 10 µg/mL + TSH (fmol/cell well) [11]: 684
- Cyclic AMP produced; 5C9 100 µg/mL + TSH (fmol/cell well) [11]: 246
- Cyclic AMP produced; 5C9 100 µg/mL only (fmol/cell well) [11]: 111
- Cyclic AMP produced; 5C9 0.01 µg/mL + TSH (fmol/cell well) [12]: 9560
- Cyclic AMP produced; 5C9 0.1 µg/mL + TSH (fmol/cell well) [12]: 1320
- Cyclic AMP produced; 5C9 1.0 µg/mL + TSH (fmol/cell well) [12]: 177
- Cyclic AMP produced; 5C9 10 µg/mL + TSH (fmol/cell well) [12]: 108
- Cyclic AMP produced; 5C9 100 µg/mL + TSH (fmol/cell well) [12]: 17
- Cyclic AMP produced; 5C9 100 µg/mL only (fmol/cell well) [12]: 34
- Mutated/wild type (%); 5C9 0.01 µg/mL + TSH [12]: 58%
- Mutated/wild type (%); 5C9 0.1 µg/mL + TSH [12]: 26%
- Mutated/wild type (%); 5C9 1.0 µg/mL + TSH [12]: 22%
- Mutated/wild type (%); 5C9 10 µg/mL + TSH [12]: 16%
- Mutated/wild type (%); 5C9 100 µg/mL + TSH [12]: 7%
- Mutated/wild type (%); 5C9 100 µg/mL only [12]: 31%
